According to the supplement of paper PMC11316812:
± gives the standard deviation of the averaged measurements.

What was measured:
hTERT-HMEC = test: percentage of EdU-negative (G0-arrested) nuclei per well, 72 h; higher = more G0 arrest; conditions: reference: sequence is the full UniProt precursor, the tested protein was the secreted form or ectodomain
MCF7 = test: as above; conditions: reference: sequence is the full UniProt precursor, the tested protein was the secreted form or ectodomain
[1] = protein concentration 0.02175 µM
[2] = protein concentration 0.2175 µM
[3] = protein concentration 0.03125 µM
[4] = protein concentration 0.3125 µM
[5] = protein concentration 0.01975 µM
[6] = protein concentration 0.1975 µM
[7] = protein concentration 0.0225 µM
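Also: secreted proteins added to cultured cells, EdU pulse at the end, nuclei found by Hoechst imaging, EdU status from nuclear versus surrounding ring intensity ratio, PBS as neutral control.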

With “MTSSGPGPRFLLLLPLLLPPAASASDRPRGRDPVNPEKLLVITVATAETEGYLRFLRSAEFFNYTVRTLGLGEEWRGGDVARTVGGGQKVRWLKKEMEKYADREDMIIMFVDSYDVILAGSPTELLKKFVQSGSRLLFSAESFCWPEWGLAEQYPEVGTGKRFLNSGGFIGFATTIHQIVRQWKYKDDDDDQLFYTRLYLDPGLREKLSLNLDHKSRIFQNLNGALDEVVLKFDRNRVRIRNVAYDTLPIVVHGNGPTKLQLNYLGNYVPNGWTPEGGCGFCNQDRRTLPGGQPPPRVFLAVFVEQPTPFLPRFLQRLLLLDYPPDRVTLFLHNNEVFHEPHIADSWPQLQDHFSAVKLVGPEEALSPGEARDMAMDLCRQDPECEFYFSLDADAVLTNLQTLRILIEENRKVIAPMLSRHGKLWSNFWGALSPDEYYARSEDYVELVQRKRVGVWNVPYISQAYVIRGDTLRMELPQRDVFSGSDTDPDMAFCKSFRDKGIFLHLSNQHEFGRLLATSRYDTEHLHPDLWQIFDNPVDWKEQYIHENYSRALEGEGIVEQPCPDVYWFPLLSEQMCDELVAEMEHYGQWSGGRHEDSRLAGGYENVPTVDIHMKQVGYEDQWLQLLRTYVGPMTESLFPGYHTKARAVMNFVVRYRPDEQPSLRPHHDSSTFTLNVALNHKGLDYEGGGCRFLRYDCVISSPRKGWALLHPGRLTHYHEGLPTTWGTRYIMVSFVDP” the “percentage of EdU-negative” value (hTERT-HMEC; [1]) was 5.45 ± 1.1%, the “percentage of EdU-negative” value (hTERT-HMEC; [2]) was 8.17 ± 1.2% and the “percentage of EdU-negative” value (MCF7; [1]) was 25.1 ± 1%. For the same sequence, the “percentage of EdU-negative” value (MCF7; [2]) was 28.2 ± 1.3%.

In the case of “MTSSLLLAFLLLAPTTVATPRAGGQCPACGGPTLELESQRELLLDLAKRSILDKLHLTQRPTLNRPVSRAALRTALQHLHGVPQGALLEDNREQECEIISFAETGLSTINQTRLDFHFSSDRTAGDREVQQASLMFFVQLPSNTTWTLKVRVLVLGPHNTNLTLATQYLLEVDASGWHQLPLGPEAQAACSQGHLTLELVLEGQVAQSSVILGGAAHRPFVAARVRVGGKHQIHRRGIDCQGGSRMCCRQEFFVDFREIGWHDWIIQPEGYAMNFCIGQCPLHIAGMPGIAASFHTAVLNLLKANTAAGTTGGGSCCVPTARRPLSLLYYDRDSNIVKTDIPDMVVEACGCS”, the “percentage of EdU-negative” value (hTERT-HMEC; [3]) is reported as 4.58 ± 0.61%, the “percentage of EdU-negative” value (hTERT-HMEC; [4]) is reported as 5.17 ± 0.32% and the “percentage of EdU-negative” value (MCF7; [3]) is reported as 25.8 ± 2.3%. For the same sequence, the “percentage of EdU-negative” value (MCF7; [4]) was 27.7 ± 2.4%.

With “MTSSLQRPWRVPWLPWTILLVSTAAASQNQERLCAFKDPYQQDLGIGESRISHENGTILCSKGSTCYGLWEKSKGDINLVKQGCWSHIGDPQECHYEECVVTTTPPSIQNGTYRFCCCSTDLCNVNFTENFPPPDTTPLSPPHSFNRDETIIIALASVSVLAVLIVALCFGYRMLTGDRKQGLHSMNMMEAAASEPSLDLDNLKLLELIGRGRYGAVYKGSLDERPVAVKVFSFANRQNFINEKNIYRVPLMEHDNIARFIVGDERVTADGRMEYLLVMEYYPNGSLCKYLSLHTSDWVSSCRLAHSVTRGLAYLHTELPRGDHYKPAISHRDLNSRNVLVKNDGTCVISDFGLSMRLTGNRLVRPGEEDNAAISEVGTIRYMAPEVLEGAVNLRDCESALKQVDMYALGLIYWEIFMRCTDLFPGESVPEYQMAFQTEVGNHPTFEDMQVLVSREKQRPKFPEAWKENSLAVRSLKETIEDCWDQDAEARLTAQCAEERMAELMMIWERNKSVSPTVNPMSTAMQNERNLSHNRRVPKIGPYPDYSSSSYIEDSIHHTDSIVKNISSEHSMSSTPLTIGEKNRNSINYERQQAQARIPSPETSVTSLSTNTTTTNTTGLTPSTGMTTISEMPYPDETNLHTTNVAQSIGPTPVCLQLTEEDLETNKLDPKEVDKNLKESSDENLMEHSLKQFSGPDPLSSTSSSLLYPLIKLAVEATGQQDFTQTANGQACLIPDVLPTQIYPLPKQQNLPKRPTSLPLNTKNSTKEPRLKFGSKHKSNLKQVETGVAKMNTINAAEPHVVTVTMNGVAGRNHSVNSHAATTQYANGTVLSGQTTNIVTHRAQEMLQNQFIGEDTRLNINSSPDEHEPLLRREQQAGHDEGVLDRLVDRRERPLEGGRTNSNNNNSNPCSEQDVLAQGVPSTAADPGPSKPRRAQRPNSLDLSATNVLDGSSIQIGESTQDGKSGSGEKIKKRVKTPYSLKRWRPSTWVISTESLDCEVNNNGSNRAVHSKSSTAVYLAEGGTATTMVSKDIGMNCL” the “percentage of EdU-negative” value (hTERT-HMEC; [3]) was 4.72 ± 0.9%, the “percentage of EdU-negative” value (hTERT-HMEC; [4]) was 6.26 ± 1.5% and the “percentage of EdU-negative” value (MCF7; [3]) was 26.3 ± 0.7%. The “percentage of EdU-negative” value (MCF7; [4]) was 24 ± 3.6%.

In the case of “MTSSRLWFSLLLAAAFAGRATALWPWPQNFQTSDQRYVLYPNNFQFQYDVSSAAQPGCSVLDEAFQRYRDLLFGSGSWPRPYLTGKRHTLEKNVLVVSVVTPGCNQLPTLESVENYTLTINDDQCLLLSETVWGALRGLETFSQLVWKSAEGTFFINKTEIEDFPRFPHRGLLLDTSRHYLPLSSILDTLDVMAYNKLNVFHWHLVDDPSFPYESFTFPELMRKGSYNPVTHIYTAQDVKEVIEYARLRGIRVLAEFDTPGHTLSWGPGIPGLLTPCYSGSEPSGTFGPVNPSLNNTYEFMSTFFLEVSSVFPDFYLHLGGDEVDFTCWKSNPEIQDFMRKKGFGEDFKQLESFYIQTLLDIVSSYGKGYVVWQEVFDNKVKIQPDTIIQVWREDIPVNYMKELELVTKAGFRALLSAPWYLNRISYGPDWKDFYIVEPLAFEGTPEQKALVIGGEACMWGEYVDNTNLVPRLWPRAGAVAERLWSNKLTSDLTFAYERLSHFRCELLRRGVQAQPLNVGFCEQEFEQT”, the “percentage of EdU-negative” value (hTERT-HMEC; [5]) is reported as 5.032 ± 0.0092%, the “percentage of EdU-negative” value (hTERT-HMEC; [6]) is reported as 20.1 ± 1.8% and the “percentage of EdU-negative” value (MCF7; [5]) is reported as 25.5 ± 0.27%. For the same sequence, the “percentage of EdU-negative” value (MCF7; [6]) was 26.4 ± 5.3%.

With “MTTQLPAYVAILLFYVSRASCQDTFTAAVYEHAAILPNATLTPVSREEALALMNRNLDILEGAITSAADQGAHIIVTPEDAIYGWNFNRDSLYPYLEDIPDPEVNWIPCNNRNRFGQTPVQERLSCLAKNNSIYVVANIGDKKPCDTSDPQCPPDGRYQYNTDVVFDSQGKLVARYHKQNLFMGENQFNVPKEPEIVTFNTTFGSFGIFTCFDILFHDPAVTLVKDFHVDTIVFPTAWMNVLPHLSAVEFHSAWAMGMRVNFLASNIHYPSKKMTGSGIYAPNSSRAFHYDMKTEEGKLLLSQLDSHPSHSAVVNWTSYASSIEALSSGNKEFKGTVFFDEFTFVKLTGVAGNYTVCQKDLCCHLSYKMSENIPNEVYALGAFDGLHTVEGRYYLQICTLLKCKTTNLNTCGDSAETASTRFEMFSLSGTFGTQYVFPEVLLSENQLAPGEFQVSTDGRLFSLKPTSGPVLTVTLFGRLYEKDWASNASSGLTAQARIIMLIVIAPIVCSLSW” the “percentage of EdU-negative” value (hTERT-HMEC; [7]) was 5.11 ± 0.53%, the “percentage of EdU-negative” value (hTERT-HMEC; protein concentration 0.225 µM) was 4.83 ± 0.5% and the “percentage of EdU-negative” value (MCF7; [7]) was 26.6 ± 0.41%. The “percentage of EdU-negative” value (MCF7; protein concentration 0.225 µM) was 26.3 ± 2.3%.
